How the values were obtained:
[1] = target: FcγRIIB on transfected CHO cells (UniProt P31994); test: flow cytometry on FcγRIIB-transfected CHO cells, detection with anti-human kappa antibody, GFI against nM
[2] = target: FcγRIIIA on transfected CHO cells (UniProt P08637); test: flow cytometry on FcγRIIIA-transfected CHO cells, detection with anti-human kappa antibody, GFI against nM
Chain of FcγRIIIA on transfected CHO cells (P08637 17-254 limits assumed): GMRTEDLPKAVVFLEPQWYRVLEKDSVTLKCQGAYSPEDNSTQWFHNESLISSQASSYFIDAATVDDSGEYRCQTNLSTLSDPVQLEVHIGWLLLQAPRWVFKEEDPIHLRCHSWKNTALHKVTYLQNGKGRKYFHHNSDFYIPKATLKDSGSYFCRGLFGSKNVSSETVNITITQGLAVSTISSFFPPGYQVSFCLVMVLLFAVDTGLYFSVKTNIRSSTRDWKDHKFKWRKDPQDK

Chain of FcγRIIB on transfected CHO cells (P31994 43-310 limits assumed): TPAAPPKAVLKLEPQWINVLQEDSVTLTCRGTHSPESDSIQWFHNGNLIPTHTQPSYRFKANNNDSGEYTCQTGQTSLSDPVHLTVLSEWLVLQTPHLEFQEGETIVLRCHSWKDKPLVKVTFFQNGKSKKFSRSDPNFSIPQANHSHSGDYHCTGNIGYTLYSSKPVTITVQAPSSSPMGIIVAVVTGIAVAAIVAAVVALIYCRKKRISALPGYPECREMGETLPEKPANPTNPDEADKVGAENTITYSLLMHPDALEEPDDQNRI

Row | Substance | EC50 (read off the curve) [1] [nM] | EC50 (read off the curve) [2] [nM]
1 | L328F (antibody) | 2 | 
2 | SELF (antibody) | 0.3 | 
3 | N297A (antibody) |  | 4
4 | S267E (antibody) | 0.7 | 1

Reference: patent US20200308290A1
